Key:
[1] = biological target: FGF receptor/BKL complex on HEK293 cells overexpressing human beta-klotho (BKL) (human) (UniProt Q86Z14); test: cell-based or functional assay
[2] = biological target: FGFR1c receptor/BKL complex on differentiated mouse 3T3-L1 adipocytes (mouse) (UniProt P16092); test: cell-based or functional assay
FGFR1c receptor/BKL complex on differentiated mouse 3T3-L1 adipocytes (mouse), sequence (P16092 22-822, chain 1 of 2): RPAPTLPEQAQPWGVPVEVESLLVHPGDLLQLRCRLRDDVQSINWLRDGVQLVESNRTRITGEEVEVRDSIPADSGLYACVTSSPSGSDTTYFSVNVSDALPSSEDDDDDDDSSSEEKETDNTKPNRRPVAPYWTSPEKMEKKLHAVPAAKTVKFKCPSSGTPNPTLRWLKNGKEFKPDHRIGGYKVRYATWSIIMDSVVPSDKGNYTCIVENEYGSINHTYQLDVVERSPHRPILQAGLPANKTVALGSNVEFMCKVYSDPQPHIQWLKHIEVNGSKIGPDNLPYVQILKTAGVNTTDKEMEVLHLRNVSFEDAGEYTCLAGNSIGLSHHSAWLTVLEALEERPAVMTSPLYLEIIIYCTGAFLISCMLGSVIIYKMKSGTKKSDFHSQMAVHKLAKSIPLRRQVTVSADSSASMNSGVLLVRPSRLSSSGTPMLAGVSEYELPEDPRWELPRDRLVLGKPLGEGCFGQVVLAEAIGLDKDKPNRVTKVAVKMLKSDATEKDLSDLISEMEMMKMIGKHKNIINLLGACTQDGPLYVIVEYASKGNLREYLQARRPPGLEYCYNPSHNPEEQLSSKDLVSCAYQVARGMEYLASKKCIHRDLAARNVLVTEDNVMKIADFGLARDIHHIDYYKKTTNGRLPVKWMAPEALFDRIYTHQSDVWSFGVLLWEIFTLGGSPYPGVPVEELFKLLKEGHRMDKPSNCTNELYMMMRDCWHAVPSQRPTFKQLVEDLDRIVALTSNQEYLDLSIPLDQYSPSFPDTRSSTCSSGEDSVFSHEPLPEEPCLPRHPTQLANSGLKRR
FGFR1c receptor/BKL complex on differentiated mouse 3T3-L1 adipocytes (mouse), sequence (Q99N32 whole entry, chain 2 of 2, further chain): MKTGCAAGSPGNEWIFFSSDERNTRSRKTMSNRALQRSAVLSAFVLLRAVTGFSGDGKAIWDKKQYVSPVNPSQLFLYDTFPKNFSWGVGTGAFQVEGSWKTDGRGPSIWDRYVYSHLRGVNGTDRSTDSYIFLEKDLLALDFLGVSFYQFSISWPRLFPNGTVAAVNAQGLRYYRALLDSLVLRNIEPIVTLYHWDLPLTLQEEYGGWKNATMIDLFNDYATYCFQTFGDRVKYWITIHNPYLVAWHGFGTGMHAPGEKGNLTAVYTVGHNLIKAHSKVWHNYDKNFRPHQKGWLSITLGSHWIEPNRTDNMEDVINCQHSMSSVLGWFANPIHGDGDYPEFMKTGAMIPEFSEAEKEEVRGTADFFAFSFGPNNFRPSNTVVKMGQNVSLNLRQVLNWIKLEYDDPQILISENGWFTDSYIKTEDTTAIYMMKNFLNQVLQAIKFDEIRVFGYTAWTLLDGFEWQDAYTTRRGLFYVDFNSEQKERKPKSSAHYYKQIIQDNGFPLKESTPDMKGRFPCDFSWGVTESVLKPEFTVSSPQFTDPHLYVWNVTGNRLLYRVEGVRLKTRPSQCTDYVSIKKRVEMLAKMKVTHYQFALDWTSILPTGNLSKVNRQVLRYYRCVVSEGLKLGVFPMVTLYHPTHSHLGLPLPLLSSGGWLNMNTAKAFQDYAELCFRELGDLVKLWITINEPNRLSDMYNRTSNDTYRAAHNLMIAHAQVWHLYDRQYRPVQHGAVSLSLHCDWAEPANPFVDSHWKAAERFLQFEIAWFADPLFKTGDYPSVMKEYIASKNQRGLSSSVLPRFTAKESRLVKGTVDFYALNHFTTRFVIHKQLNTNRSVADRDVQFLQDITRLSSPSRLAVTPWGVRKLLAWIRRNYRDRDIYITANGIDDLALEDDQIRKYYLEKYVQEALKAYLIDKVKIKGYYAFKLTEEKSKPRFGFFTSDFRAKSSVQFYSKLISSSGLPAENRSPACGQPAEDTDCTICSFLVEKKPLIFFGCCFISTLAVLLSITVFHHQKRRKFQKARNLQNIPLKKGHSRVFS

FGF receptor/BKL complex on HEK293 cells overexpressing human beta-klotho (BKL) (human), sequence (Q86Z14 whole entry, one chain of several): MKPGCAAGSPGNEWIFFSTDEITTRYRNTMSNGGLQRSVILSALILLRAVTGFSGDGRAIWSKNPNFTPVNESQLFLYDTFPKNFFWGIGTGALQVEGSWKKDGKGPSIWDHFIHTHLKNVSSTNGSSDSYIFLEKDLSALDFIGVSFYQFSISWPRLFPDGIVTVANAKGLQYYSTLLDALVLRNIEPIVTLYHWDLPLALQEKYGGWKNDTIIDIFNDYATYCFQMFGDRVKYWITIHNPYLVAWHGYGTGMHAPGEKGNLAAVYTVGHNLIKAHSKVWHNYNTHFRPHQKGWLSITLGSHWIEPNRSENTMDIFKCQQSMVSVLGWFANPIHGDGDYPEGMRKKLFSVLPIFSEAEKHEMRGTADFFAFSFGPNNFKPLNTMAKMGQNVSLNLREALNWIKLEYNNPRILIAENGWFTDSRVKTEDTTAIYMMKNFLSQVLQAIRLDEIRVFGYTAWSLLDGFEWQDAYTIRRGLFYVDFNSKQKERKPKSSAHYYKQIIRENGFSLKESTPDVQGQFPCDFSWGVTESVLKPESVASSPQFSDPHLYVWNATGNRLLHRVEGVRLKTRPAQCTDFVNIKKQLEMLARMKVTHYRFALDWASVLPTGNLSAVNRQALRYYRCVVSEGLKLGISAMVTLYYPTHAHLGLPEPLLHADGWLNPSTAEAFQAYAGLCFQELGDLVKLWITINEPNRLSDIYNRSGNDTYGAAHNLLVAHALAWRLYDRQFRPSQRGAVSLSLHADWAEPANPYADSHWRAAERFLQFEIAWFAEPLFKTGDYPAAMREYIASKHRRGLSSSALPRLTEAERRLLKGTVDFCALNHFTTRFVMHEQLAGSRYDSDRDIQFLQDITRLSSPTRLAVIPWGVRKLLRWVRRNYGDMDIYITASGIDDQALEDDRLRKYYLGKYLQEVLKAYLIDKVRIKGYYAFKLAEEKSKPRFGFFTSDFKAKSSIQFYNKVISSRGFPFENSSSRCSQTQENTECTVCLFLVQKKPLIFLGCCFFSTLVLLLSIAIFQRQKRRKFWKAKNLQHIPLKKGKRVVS

Row | Substance | EC50 (0.1% HSA) (nM), pERK, HEK293/BKL cells [1] | EC50 (nM), pERK, HEK293/BKL cells [1] | Glucose uptake EC50 (nM), 3T3-L1 adipocytes [2] | Glucose uptake Emax (%), 3T3-L1 adipocytes [2]
1 | S{Beta-181}-[2-[2-[[2-[2-[2-[[2-[2-[2-[[(4S)-4-carboxy-4-(15-carboxypentadecanoyl-amino)butanoyl]amino]ethoxy]ethoxy]acetyl]amino]ethoxy]ethoxy]acetyl]amino]-ethylamino]-2-oxoethyl]-Ala[Gln121,Leu168,Cys181]FGF21 (from UniProt Q9NSA1 29-208) (ligand) | 72 nM | 55 nM | 31 nM | 61%
2 | S{Beta-180}-[2-[2-[[2-[2-[2-[[2-[2-[2-[[(4S)-4-carboxy-4-(11-carboxyundecanoyl-amino)butanoyl]amino]ethoxy]ethoxy]acetyl]amino]ethoxy]ethoxy]acetyl]amino]-ethylamino]-2-oxoethyl]-Ala[Gln121,Leu168,Cys180]FGF21 (from UniProt Q9NSA1 29-209) (ligand) | 4 nM | 7 nM | 2.7 nM | 87%
